Test results taken from the RNAGym collection of RNA variant scans (doi:10.7554/elife.80360).

B1: Hairpin Ribozyme (parent)
chain: GUCCUCUUUCACGUGCGCGUGAAAGAGAGAAGUGAACCAGAGAAACACACGUUGUGGUAUAUUACCUGGUA

Variants of: B1
Assay: self-cleavage, relative activity (ratio to wild type); higher = more cleavage; co-transcriptional

Variant	self-cleavage
U9A A22C	0.773
U9A A22G	0.605
U9G C12G	0.53
U9G C12A	0.499
U8G G34U	1.28
U8C G21U	0.142
U9C A59U	0.146
U9C A59C	0.142
U9C G25A	0.24
U9C G25C	0.314
U8G G68U	0.268
U8G G68A	0.119
U9G C66A	0.279
U8G A43C	0.152
U8G A43U	0.228
U8C A41C	0.72
U8C A41G	0.458
U9G C18A	0.707
U8G A24C	0.592
U8G A24U	0.595
U9G G56U	0.124
U9C G32U	0.0498
U8C C66A	0.19
U8C C66U	0.273

Variant	self-cleavage
U9G A44U	0.162
U9G U62G	0.154
C10A C65U	0.274
U9G A71C	1.2
U9G A71G	0.779
U9G A71U	0.601
U9A U70G	0.532
U9C A24U	0.677
U8C G25C	0.148
U8C G25A	0.197
U8C G34U	1.32
U8C C46U	0.172
U8C G51C	0.701
U8C G51A	0.855
U8C G51U	0.901
C10A G15U	0.871
U8C C18G	0.528
U9C C37U	0.529
U9C C37G	0.595
U9G G32U	0.123
C10A C12G	0.556
C10A C12U	0.452
C10A C37G	0.266
C10A C37U	0.437

Variant	self-cleavage
U9G C10A	0.735
U9G C10U	0.743
U8G U62G	0.163
U8G U52G	0.621
U8G U52A	0.752
U9A G56C	0.0939
U8G U55G	0.223
U9C C65U	0.258
U9G G15U	0.894
U9G G15C	0.893
U8G A22U	0.582
U9G U60G	0.322
U8C A64C	0.043
U9G A23U	0.482
U9G A23C	0.589
U8C U63G	0.188
U9C A64G	0.381
U9C A64U	0.0987
U9C A64C	0.201
U8C G19C	0.232
U8C G32A	0.198
U9G U20G	0.333
U9G A61G	0.257
U8G A23G	0.759

Variant	self-cleavage
U9A U53G	0.703
U9A U53C	0.732
U9G G27C	0.115
C10A C16U	0.762
U8C G29C	0.0996
U8G G17U	0.651
U9G A36U	0.431
U9G A36G	0.793
U9G A36C	0.381
U9C U58C	0.747
U8G A35C	0.715
U9A G32A	0.179
U9G G19C	0.56
U9A G19A	0.588
U9C G13U	0.469
U9C A36G	0.882
U8G A47C	0.266
C10A A28C	0.251
C10A A26C	0.297
C10A A26U	0.461
U9A U14G	0.74
U9A U14C	0.62
U9A A28G	0.748
U9A A28C	0.266

Variant	self-cleavage
U8G U60C	0.845
U8G U60A	0.647
U9C G51C	0.761
U9C G51A	0.775
U9C U55G	0.266
U9G G51A	0.626
U8G A36U	0.557
U9A G21C	0.465
U9C A71U	0.68
U8C G56C	0.12
U8G G56U	0.169
U9G A22G	0.79
U9G A59U	0.101
U9G A59C	0.275
U8C U55G	0.101
U9A U52G	0.472
U9A A41G	0.675
U9A C48A	0.144
U9G A39C	0.356
U8G G21U	0.523
U8G G32U	0.0934
U8G G32C	0.12
U9C A47G	0.123
U8C A31U	0.14

Variant	self-cleavage
U8G U33G	0.111
U8C A61G	0.0942
U8C G54C	0.346
U9G G40C	0.104
U9A C46U	0.134
U9A C46G	0.135
U9C A44U	0.247
U8G A71C	1.34
U8C G15U	0.932
U8C G15C	0.565
U9G U67C	0.188
U8G	0.764
U9C U70G	0.687
U8G A11G	0.704
U9A A44G	0.0648
U9C C46A	0.122
U9C G17U	0.709
U9A U55G	0.279
U8G U9A	0.734
U9A C50A	0.264
U9A C50G	0.214
U8C U9G	0.374
U9G A47G	0.231
U9G G68C	0.136

Variant	self-cleavage
C10A A36C	0.528
U8G A64G	0.476
U9A A24C	0.514
U9A A24U	0.466
U8G A26G	0.673
U8C G57U	0.368
U9G U55C	0.163
U8C C16A	0.84
U8C C16G	0.651
U8C C16U	0.734
U8G G42C	0.284
U8G G42U	0.254
C10A A22C	0.636
C10A A49C	0.223
U9C G19A	0.704
U8G C48U	0.0825
U8G C48G	0.138
U8G C48A	0.146
C10A A59U	0.234
U9G A35G	0.546
U9G A49C	0.182
U9G A49U	0.163
U9G U58C	0.794
